{
  "source": "paper PMC10397247",
  "test_in_all_cases": "two-hybrid library CCNG1;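 further: natural log of median RNA to DNA barcode read ratio; higher means stronger binding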",
  "key": {"4H2619-bA": {"biological_target": "T1, 4H2619-bA", "T1 chain": "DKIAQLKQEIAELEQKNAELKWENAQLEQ"}, "4H2691-bA": {"biological_target": "T2, 4H2691-bA", "T2 chain": "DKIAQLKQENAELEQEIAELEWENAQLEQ"}, "4H2745-bA": {"biological_target": "T3, 4H2745-bA", "T3 chain": "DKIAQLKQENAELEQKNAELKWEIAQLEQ"}, "4H3070-bA": {"biological_target": "T4, 4H3070-bA", "T4 chain": "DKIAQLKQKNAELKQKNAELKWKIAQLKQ"}, "4H3129-bN": {"biological_target": "T5, 4H3129-bN", "T5 chain": "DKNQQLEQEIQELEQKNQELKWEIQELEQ"}, "4H342-bA": {"biological_target": "T6, 4H342-bA", "T6 chain": "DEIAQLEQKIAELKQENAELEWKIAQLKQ"}, "4H344-bA": {"biological_target": "T7, 4H344-bA", "T7 chain": "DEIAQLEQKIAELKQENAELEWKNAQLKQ"}, "4H363-bA": {"biological_target": "T8, 4H363-bA", "T8 chain": "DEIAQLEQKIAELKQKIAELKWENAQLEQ"}, "4H3632-bA": {"biological_target": "T9, 4H3632-bA", "T9 chain": "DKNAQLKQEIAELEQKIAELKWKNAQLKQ"}, "4H3907-bA": {"biological_target": "T10, 4H3907-bA", "T10 chain": "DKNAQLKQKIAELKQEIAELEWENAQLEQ"}, "4H3961-bA": {"biological_target": "T11, 4H3961-bA", "T11 chain": "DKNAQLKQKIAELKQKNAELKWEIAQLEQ"}, "4H470-bA": {"biological_target": "T12, 4H470-bA", "T12 chain": "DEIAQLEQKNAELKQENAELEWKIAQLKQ"}, "4H496-bA": {"biological_target": "T13, 4H496-bA", "T13 chain": "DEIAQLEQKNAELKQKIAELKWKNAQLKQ"}},
  "data": [
    {"binder": "DKIAQLKQEIAELEQKNAELKWENAQLEQ", "note": "[4H2619-bA]", "values": [
      {"measurement": "interaction score", "setting": "4H2619-bA", "value": 0.00432},
      {"measurement": "interaction score", "setting": "4H2691-bA", "value": -0.41},
      {"measurement": "interaction score", "setting": "4H2745-bA", "value": -0.393},
      {"measurement": "interaction score", "setting": "4H3070-bA", "value": -0.983},
      {"measurement": "interaction score", "setting": "4H3129-bN", "value": -2.48},
      {"measurement": "interaction score", "setting": "4H342-bA", "value": 1.56},
      {"measurement": "interaction score", "setting": "4H344-bA", "value": 2.12},
      {"measurement": "interaction score", "setting": "4H363-bA", "value": -0.409},
      {"measurement": "interaction score", "setting": "4H3632-bA", "value": -1.09},
      {"measurement": "interaction score", "setting": "4H3907-bA", "value": -0.505},
      {"measurement": "interaction score", "setting": "4H3961-bA", "value": -0.981},
      {"measurement": "interaction score", "setting": "4H470-bA", "value": -0.832},
      {"measurement": "interaction score", "setting": "4H496-bA", "value": -0.573}
    ]}
  ]
}
